Data taken from the DeepSol protein solubility set.

Assay: soluble on expression in E. coli; label from the status in PepcDB or PDB records

Soluble on expression in E. coli, not soluble:
MQADPAIRRFAKKRNKRVDRMILDSNYMHTSIDRYFPNESKRRGRPDIIYLLLEMTQESILNHKNQLRTYVHTRNNQVIRISPITRMPKSYNRFIGLFEDLFEKRIITNNGKELLSMEESSLGDLINSIRRDRTILLHPKGEMRKPSEFISNANILIVIGGFSEGDFISDTSFINERYAIFDQELTIWSVANEMVANYERAVGLT
MFILSAQRLSGTQVFRRLAEGCTGYSVSSGCRQRRRCCPGAPQRPRRVRVNALQLQSGLADPLDPKSEAEVREHLRSNSPAERALGINYARYLDESTRYDILLEMMEDTDPQVRYAAVTQLATVGSHDRQRTLKAVRKILWNTEEDASVRAGAADVLGGLRFHEAFPDLEKLFHESKDWVVRFSIIAALGEMGVREAFPILVEALHANKEPLVQLAAIGALGELGDERARVYLEPLVNSSDASIVERARFALDALDARGSERT
MPEFDFSPITEGIYNVIETEEKVLTSLPEETITQKRNRQNRTIKQILGHLIDSTSNNHQRMIRLQYSKDLLFFPDYRQDNDLWIALQDYQHTDWNNLIQLWKFFNLHIIQVIKSVDQTKLDSYWCDFEGTKVTLKEMIEGYLDHLNLHIQEIHELI
MGSDKIHHHHHHMEKENIMTVDIEDFKKSQHILDYIDDDFAIVNSLDGIPYSNDTVRLNCFLIAVCAEGCIQLDINYRTYQLQAGDLLLGLPNTLISRTMLSPKYKIRLAGFSTRFLQRIIKMEKKTWNTAAHIHNNPVKSISEGGDDPVFRFYRDLIVAKINDEPHYYHREVMQHLFSALFCEMLGQLHKEIDAPDKGDSPKEGIKQADYTLRKFVELLSKDKGMHRSVSYYADALCYTPKHFSKVIKQACGRTPLDLINETTIEHIKYRLKRSDKSVKEIAEEFNFPNQSFFGKYVKMHLGTSPANYRNREDE
GLGDAGSTPTTSAADGVPSDTSLTGSGGLHLPQQLEQYRGDIMDAAKATGVPPSVIAGQIWAESRGQLNAATTNVNGKADAGLMQVNADTFKSLQQQNPGLLGNDVNDSHTNIMAGALYLRDQNKEFGDMGAALRAYNSGPDKVNKADLSDTGGVGGSSYPADVLNFAKIIESGQGNLPA
MCMSVFKRLRDLTMSNVYSLIEKAEDPVKMTDQYLRDMQADVQEAEKSVAAQIALEKKFKILFEEQEALVKKREEQAHMAVQASNLDLARRALEEKQNAEQKMNEYKASYEQNKAAADNLRLKLEEMRKQLTELKNKRETLVARVNAAKAQKNINQAMSGFDSNSAKAGLSRMEEKALQLEAEAEASGEVYKKEKSLDDEFASLNKNSAVDDELARIMKQYEKMAGDPLEHHHHHH
MVVAFLIGAGGMFAGMSLFGVNPAEVTQTISSGNASTAQGNLAKINEAYALIDSRYVEDVKDEKLVEGAIQGMLSTLKDPYSTYMDKETAKQFSESLDPELEGIGAEVNKTDGKLIIVSPIKGSPAEKIGIKPNDQILSVDGNSVKDLSREEAVLKIRGKKGTTVAIEIKRAGVADPIVFKIKREKIPIFTVFSSVKQESGKDIGYMQITSFAENTAKEFKDQLKELEKKNIKGLVIDVRGNPGGYLNSVEEILGEIMTDKKPMLQVEQRNGEKKKFSTELKERKPYPISVLIDNGSASASEILAGALKEGEGYDLIGEKTFGKGTVQQAVPFKDGSNIKLTMFKWLTPDGNWIHKKGIKPTVEVKQPDYYHATPIQIEKTLSYNANDVQVKHAQEMLKSLGYVPGREDGYFSKETESALKAFQNANKMEATGQLDKKTAEAIQTKIIEKIRSGENDLQLQSALKLMAK
MAPPSQDVLKEIFNLYDEELDGKIDGTQVGDVARAAGLKPTQAMVTKAAGQEFKRKGEKRLTFEEWLPMYEQLAKEKEQGTYADFYEGLKVFDKEETGKILAAELRHILLALGERLSADEADELLKGVEDGEGMVKYEDFIKKVLAGPFPDQD
MAIKGLEQAVENLSRISRTAVPGAAAMAINRVASSAISQSASQVARETKVRRKLVKERARLKRATVKNPQARIKVNRGDLPVIKLGNARVVLSRRRRRKKGQRSSLKGGGSVLVVGNRRIPGAFIQQLKNGRWHVMQRVAGKNRYPIDVVKIPMAVPLTTAFKQNIEQIRRERLPKELGYALQHQLRMVIKR
MRSMTLEQLRTASETGGVSSVTLKGQGGAFLVQINTRSGVAAILTKARNSEPRRFGNPAAALNVLREVGITIGQFDASEWNPDEREPVARSSDNRAKALHKAHEAAAYNEWLAAEIQEAIDDPRPGIPHDEVMARMDARIVRHKAAGAKRA
MSQTGEKGKFPDAAGYVGFANLPNQVHRKSVKKGFEFTLMVVGESGLGKSTLINSLFLTDLYPERYIPGAAEKIERTVQIEASTVEIEERGVKLRLTVVDTPGYGDAINSQDCFKTIIQYIDNQFERYLHDESGLNRRHIVDNRVHCCFYFISPFGHGLKPLDVEFMKAIHSKVNIVPVIAKADTLTLKERDRLKRRILDEISEHGIRIYQLPDADSDEDEEFKDFVPNRCIWSSLQFYQMHIIAITFIDIMFVFKKAAHVISTTIIMVKLNIKCQ
TTPMNLTDAIAYILRPFAVLKVPVNDIALMISVALRFIPTLMGETDKIMKAQRARGVDFGEGNLFEQMKVVVPIFIPLFVSSFNRAEELADAMEARGYQGGEGRTRFRILH
MDESEPVRQIYDHKDLAEFLESSAFQDIWDFVERLNCSVRGLSGDALAGPRVPATSLVTAELAALKELAAEVELLPAETGRFGNRAFRTWFSQLQERTPRFTEELLVKSDQTKRYGPDLQAYFLGAFGDPMRIDYGTGHEASFLLFMFCLHRLHLFRAEDFPELVLSVFPAYLATTRYLQQRFTLEPAGSHGVWGLDDYVFLPFLFGSSQLIGKDTEVPPVAARDRELVLELAPKYLYFDTIRFILETKRGPFAEHSPTLYDISGLENWSRINAGLLRMYKAEVWSKLPVIQHIPFGILIPFRSAARTSTERLPAGS
MGSDKIHHHHHHCNNSNTKDNDKLFIGNGKFCQAKRLNGLGAIYDDDYIFFDCENQIYESYNYSNKKNDKKLNVNCRNSACSHNNDKCEAYVELGEYFVFNSKIYKYYNKSKVVSGENRLYGSIVEEESGKTVFKNSIPTDMSSELAIDDSEAILYVRVLSDDIIKVDGDRHAYLLDKNFNIIYCHYNIGKFPWGAILNGNYYYINDINEIVKVNLTTFESKSIASNGKAFMADNDENFIYYSNEFSELYKLSPDDESSIKIADNALFFSVQNKYIYASGGDNGNKIIYDKNGKIIADYSACVNMGADSAFQINDKIYTIFNGGVAYMDLDGKNYGEMMQ
MGSDKIHHHHHHMSRPKVIVTIAPTGGMASKQQNPHLPTQPEEIASDVYDCYNAGASVVAVHARRPDDGATCDAAIYRDINTRIRAKCDIVINNSTGGGVHGEMIGQASNGYWEILWEERLKGMDAGAELCTLDATTIIATFGGKELLMHTSPERSKHLAVEMKKRGIKPEWEVFSPTHIVQDVAALTAAGFDEEPFFINLVLGVHRNFQNAMPYSPRVLQSMVDLLPKGSIFCVSGIGPAQLPSAMNSLLLGGHVRVGLEDNLYYSAGELATNVQLVERVVRLVREMGYEPATPREAREIMGLPRSSGPRPDFAMQ
QRKGVLIILDGLGDRPIKELGGKTPLEYANTPTMDYLAKIGILGQQDPIKPGQPAGSDTAHLSIFGYDPYKSYRGRGYFEALGVGLELDEDDLAFRVNFATLENGVITDRRAGRISTEEAHELAKAIQENVDIPVDFIFKGATGHRAVLVLKGMAEGYKVGENDPHEAGKPPHPFTWEDEASKKVAEILEEFVKKAHEVLDKHPINEKRRKEGKPVANYLLIRGAGTYPNIPMKFTEQWKVKAAAVVAVALVKGVAKAIGFDVYTPKGATGEYNTDEMAKARKAVELLKDYDFVFIHFKPTDAAGHDNNPKLKAELIERADRMIKYIVDHVDLEDVVIAITGDHSTPCEVMNHSGDPVPLLIAGGGVRADYTEKFGEREAMRGGLGRIRGHDIVPIMMDLMN
MEENTKEMIVIDSVDRYNEIFGLETRHPLVSIIDLAKSTTWPTRAWFRYEVYALYLKNVKCGDIKYGRQYYDYQDGTIVCFAPGQITDLEMLPNIQPNAHGILFHPDLIRGTALGQEIKKYSFFSYETNEALHISEEERQTVMDCLQKITIELEHSIDKHSRRLICANIGLLLDYCMRFYERQFDTRNGVNKDIIVRFEHLLNEYFEGDAPQNQGLPSVKYFADKVFLSANYFGD
MGSDKIHHHHHHMKLDDCQLLIHVHKAGTMRGAARSLHLSQPAISQRLKQMEDLWGGAIFIRTHKKLLLTPLGEKVLTFAQETLWRTERLREELEQMKGSVSGRLSLGISSVVSHYLIPPLLEKYTKAYPRVNIELISTTSDQIRRTFSSYHVAIFRGDRLPEQASHLLLADPLYLVFDKDIPIEKRPLIQWKSDPSLEALIQAWMRSVTSFTFRGHVSVDQIETCKQLMLRGVGAAILPEMAIKDVSDQCFHKLPLQLDNQPLERQTWVLYEEEALSLPQVEAFLQLLPLK

Soluble on expression in E. coli, soluble:
MIATYNTNVGDVLMLITANDKGEKVNFERKGKVARVFIEETGATVAWNIFEAKSLLANLSGNGQVVLSSDDIETLNKELGKSGFSDVLVHDAQPKFVVAEIVEMEDHPDSDHLHICKVNVGFADPVQIVCGAPNAALGLKTVAALPGAMMPNGSLIFPGALRGVQSYGMLCSARELELPNAPEVRGIIELSSDLSAGKAFDSETMWQALEHHHHHH
MSLRMMNKRILKGTLTAIAALMSAHAFAGQEVTVYTAFETDLLAKYKSAFEKENPDIEIKWVRDSTGIMTAKLLAEKDNPRAEVVWGLAGSSMALLKDQGVLKPYTPKGANELRANLNDPQAQQAWYGNDAFFNAVCFNEAVAKQLNLPKPQSWEDLTNPVYKGHIAMPNPASSGTGYMQVSAWLQNMGEDKAWDYMQRLDQNIAHYTHSGSKPCVQAGMGEVAIGISMATRGAKLKTQGAPLDVIVPNGIGWESEAVGLVKESDAAKRVVDWSVSKAANELYIESYPIVGHQDVSKQVPNYPNVEKVMAKMDFTQMGVDRARVLQTWSEKFDAKSEPKEGHHHHHH
GPGSMPVDYSKKLDALRELYERVQQKDTDIPEDVYAAAGVKNKARLKDIEKEISTTKKKVSQEVKKVTNEEIEKEYEALAKEHNMTVEEFKETVMGKGRQPALGSEFSERHAAQRKERAEQRDLKETRRQVERGDFDMTVDYV
TRPIFAIEQLSPYQNVWTIKARVSYKGEIKTWHNQRGDGKLFNVNFLDTSGEIRATAFNDFATKFNEILQEGKVYYVSKAKLQPAKPQFTNLTHPYELNLDRDTVIEECFDESN
EDRPSKAPSFWYKIDPSHTQGYRTVQLVWKTLPPFEANGKILDYEVTLTRWKSHLQNYTVNATKLTVNLTNDRYLATLTVRNLVGKSDAAVLTIPACDFQATHPVMDLKAFPKDNMLWVEWTTPRESVKKYILEWCVLSDKAPCITDWQQEDGTVHRTYLRGNLAESKCYLITVTPVYADGPGSPESIKAYLKQAPPSKGPTVRTKKVGKNEAVLEWDQLPVDVQNGFIRNYTIFYRTIIGNETAVNVDSSHTEYTLSSLTSDTLYMVRMAAYTDEGGKDGPEFTFTTPK
MRAKKRKFLQKEELSKLLQSLDMSQIGFGWFVMLVAKTGMRYAEALAITPADFDWTAQTISINKTWDYKYNKGFAKTKTLSSVRTIKIDWQIVGQFKPLIKDFPEDEPIFVEKFGDGTYKRQFNSTINNFLAVKCNETGITQISFHALRHTHASVLLAEGVSIHTISARLGHADVGVTQETYALEHHHHHH
MSLAEGNYISRIRAKIGHDPLIMINTFAVLWNEKHDAIFLEQRADIPDGWGFPGGFVEYGESPMDAIVREVKEETNLDVKVKNMFEMISSVNPHNFWGDAQQNLSLGFEIELLDGKLQVDQSETLAAEFVPINPEPKMFVPAAQANMHRILTWEDRPKPWLIDSNIKSHSEGHHHHHH
